The target of experiment [1] is firefly luciferase Fluc^K378C-K496C (Fluc^CDS1, C-terminal domain sensor) (firefly) [luciferase: P08659]. Kind of experiment: single-molecule FRET within the labelled client.
For experiment [2], the target named is firefly luciferase Fluc^A12C-K329C (Fluc^NDS1, N-terminal domain sensor) (firefly) [luciferase: P08659]. Description: single-molecule FRET within the labelled client.

Turning to “DnaK (bacterial Hsp70) (from UniProt P0A6Y8 1-638) (natural protein)”, the percent of the time DnaK-bound (FRET < 0.3) after 15 min in experiment [1] and in experiment [2] was 15% throughout.

The values above are taken from paper doi:10.1101/2025.08.25.672245.
